Measured values published in the nanobody polyreactivity screen of Harvey et al. (2022).

experiment: yeast display, Sf9 membrane polyspecificity reagent, FACS + sequencing; frameworks hold sequencing errors
Procedure, shortened: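 Synthetic nanobody libraries on Saccharomyces cerevisiae BJ5465 were galactose-induced for 36–48 hours, stained 1 hour at 4 °C with 10% biotinylated, detergent-solubilized Sf9 membrane reagent and enriched on streptavidin microbeads. FACS then separated cells into low and high (top ~1%) gates by anti-HA (expression) and streptavidin (reagent binding) fluorescence. Genes were colony-PCR amplified, MiSeq 2 × 250 sequenced and CDR-length filtered. A clone's polyreactivity label is that of its gate of origin.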

Which “polyreactivity (PSR sort gate)” value does the source give for “QVQLVESGGGLVQAGGSLRLSCAASGSTVYYNAMGWYRQAPGKERELVADITTSGDSTYYADSVKGRFTISRDNAKNTVYFQMNSLKPEDTAVYYCNAGVVGDYPYWGLMDYWGQGTQVTVSS” here?
The value was “high polyreactivity”.

Which “polyreactivity (PSR sort gate)” value does the source give for “QVQLVESGGGLVQAGGSLRLSCAASGSTWWYDMGSYRQAPGKERELVASISSGDSTNYADSVKGRFTISRDNAKNTVYLQMNSLKPEDTAVYYCAADFNFGFVWGDDYDYWGQGTQVTVSS” here?
The value was “low polyreactivity”.

Which “polyreactivity (PSR sort gate)” value does the source give for “QVQLVESGGGLVQAGGSLRLSCAASGSTYAMGWYRQAPGKERELVASITSRGGSTYYADSVKGRFTISRDNANNTVYLQMNSLKPEDTAVYYCAARWYYSYICYDYWRQGTQVTVSS” here?
The value was “high polyreactivity”.

With “QVQLVESGGGLVQAGGSLRLSCAASGSTYDSNAMGWYRQAPGKERELVAAIDWSGGSTYYADSVKGRFTISRDNAKNTVYLQMNSLKPADTAVYYCAADDSSINYGDFDYWGQGTQVTVSS” as the sequence, how does the “polyreactivity (PSR sort gate)” value read?
The value was “low polyreactivity”.

For “QVQLVESGGGLVQAGGSLRLSCAASGSTYFRNAMGWYRQAPGKERELVADISASGGSTYYADSVKGRFTISRDNAKNTVYLQMNSLKPEDTAVYYCNALYIYFYNYLTIVYWGQGTQVTVSS”, which “polyreactivity (PSR sort gate)” value is on record?
Its value is “low polyreactivity”.

For “QVQLVESGGGLVQAGGSLRLSCAASGSTYGIYAMGWYRQAPGKERELVAAISSGGSTNYADSVKGRFTISRDNAKNTVYLQMNSLKPEDTAVYYCAVESVYEYGGYVDSAYDYWGQGTQVTVSS”, which “polyreactivity (PSR sort gate)” value is on record?
Its value is “low polyreactivity”.

For “QVQLVESGGGLVQAGGSLRLSCAASGSTYPYPYTMGWSRQAPGKERELVAVISRTGGSTFYADSVKGRFTISRDNAKNTVHLQMNSLKPEDTAVYYCAARRDGWTFWKYDYWGQGTQVTVSS”, which “polyreactivity (PSR sort gate)” value is on record?
The value was “high polyreactivity”.

Which “polyreactivity (PSR sort gate)” value does the source give for “QVQLVESGGGLVQAGGSLRLSCAASGSYAKGWYRQAPGKERELVAYINGRDGSTYYADSVKGRFTISRDNAKNTVYLQMNSLIPEDTAVYYCNADYVLQYNYWGQGTQVTVSS” here?
The value was “low polyreactivity”.

Which “polyreactivity (PSR sort gate)” value does the source give for “QVQLVESGGGLVQAGGSLRLSCAASGTFGVYAMGWYRQSPGKERELVAVITDSGGTNYADSVKGRFTISRDNAKNTVYLQMNSLKPEDTAVYYCNTDAGDYYGENYWGQGTQVTVSS” here?
The value was “low polyreactivity”.

Which “polyreactivity (PSR sort gate)” value does the source give for “QVQLVESGGGLVQAGGSLRLSCAASGTFKWYAMGWYRQAPGKERELVAVISSSGGTTYYADSVKGRFTISRDTAKITVYLQMNSLKPEDTAFYYCNAAKLFRYDYWGQGTQVTVSS” here?
The value was “high polyreactivity”.

For “QVQLVESGGGLVQAGGSLRLSCAASGTFTSNAMGWYRQAPGKERELVAVITGGGRTNYADSVKGRFTISRDNAKNTVYLQMNSLKPEDTAVYYCAAEVYLPYYERYDYWGQGTQVTVSS”, which “polyreactivity (PSR sort gate)” value is on record?
The value was “low polyreactivity”.

Which “polyreactivity (PSR sort gate)” value does the source give for “QVQLVESGGGLVQAGGSLRLSCAASGTFVTYMGWSRQAPGKERELVAAIRNGGSTNNADTVKGRFTISRDNAKNTVYLQMNSLIPEDTAVYYCAPRFTYSRGYRGGSRTKYDYWGQGTQVTVSS” here?
The value was “low polyreactivity”.

Which “polyreactivity (PSR sort gate)” value does the source give for “QVQLVESGGGLVQAGGSLRLSCAASGTFVYYAMGWYRQAPGKERELVAVISLNGGITYYADSVKGRFTISRDNAKNTVYLQMNSLKPEDTAVYYCNAQFYNSGWSFKYYYWGQGTQVTVSS” here?
Its value is “low polyreactivity”.

For “QVQLVESGGGLVQAGGSLRLSCAASGTFYKYAMGWYRQAPGKERELVAAISWRGGRTYADSVKGRFTISRDNAKNTVYLQMNSLKPEDTAVYYCNKRFYPEHYYWGQGTQVTVSS”, which “polyreactivity (PSR sort gate)” value is on record?
The value was “high polyreactivity”.

Which “polyreactivity (PSR sort gate)” value does the source give for “QVQLVESGGGLVQAGGSLRLSCAASGTFYPNAMGWYRQAPGKERELVAAISEDGGGTYYADSVKGRFTISRDNAKNTVYLQMNSLKPEDTAVYYCAAEYYDYWYTYDYWGQGTQVTVSS” here?
Its value is “high polyreactivity”.

With “QVQLVESGGGLVQAGGSLRLSCAASGTIFDAYAMGWYRQAPGKERELVAAISLDDGSTYYADSVKGRFTISRDNAKNTVYLQMNSLKPEDTAVYYCAADYYVRSQHLYATSGNYWGQGTQVTVSS” as the sequence, how does the “polyreactivity (PSR sort gate)” value read?
Its value is “high polyreactivity”.

Which “polyreactivity (PSR sort gate)” value does the source give for “QVQLVESGGGLVQAGGSLRLSCAASGTIFPGYTIGWYRQAPGKEREFVAAISRRGGSTYYADSVKGRFTISRDNAKNTVYLQMNSLKPEDTAVYYCPKVPDYRFEYWGQGTLVTVSS” here?
Its value is “high polyreactivity”.

With “QVQLVESGGGLVQAGGSLRLSCAASGTIFRLYTMGWYSQAPGKERELVAAITGSGDSTYYADSVKGRFTISRDNAKNTVYLQMNSLKPEDTAFYYFAAKLSRVKYGYWGQGTQVTVSS” as the sequence, how does the “polyreactivity (PSR sort gate)” value read?
The value was “high polyreactivity”.

Which “polyreactivity (PSR sort gate)” value does the source give for “QVQLVESGGGLVQAGGSLRLSCAASGTIFRVYAMGRYRQAPGTERELVAAISSSGGSTYYADSVKGRFTISRDNAKTTVYLQMNSLKPEDTAVYYCAAEYDGPYTWVDYYYHYGYWGQGTQVTVSS” here?
The value was “low polyreactivity”.

For “QVQLVESGGGLVQAGGSLRLSCAASGTIFTTYAIGWYRQEPGKERELVSAISGRGSDTYYADSVKGRFTISRDNAMNTVYLQMNSLKPEDTAVYYCNARRSRAYHGRSFEYWGQGTQVTLSS”, which “polyreactivity (PSR sort gate)” value is on record?
Its value is “low polyreactivity”.

For “QVQLVESGGGLVQAGGSLRLSCAASGTIFVPYAMGWYRQAPGKERELVAVITSGGSTYYADSVKGRFTISRDNAKNTVYLQMNSLNPEDTAVYYCIADLYYVWSTLSQFDYWGQGTHVTVSS”, which “polyreactivity (PSR sort gate)” value is on record?
Its value is “low polyreactivity”.
